Reference: patent US20170224771A1, “HISTATINS AS THERAPEUTIC AGENTS FOR OCULAR SURFACE DISEASE” (RAPID PATHOGEN SCREENING, INC., priority 2014, published 2017)

Experiments:
[1] = target: MMP-9 (Homo sapiens, UniProt P14780); details: host protease; according to Gusman; cited from earlier work
[2] = target: T1, MMP-2 (Homo sapiens, UniProt P08253); details: host protease; according to Gusman; cited from earlier work
T1 sequence (P08253 110-660): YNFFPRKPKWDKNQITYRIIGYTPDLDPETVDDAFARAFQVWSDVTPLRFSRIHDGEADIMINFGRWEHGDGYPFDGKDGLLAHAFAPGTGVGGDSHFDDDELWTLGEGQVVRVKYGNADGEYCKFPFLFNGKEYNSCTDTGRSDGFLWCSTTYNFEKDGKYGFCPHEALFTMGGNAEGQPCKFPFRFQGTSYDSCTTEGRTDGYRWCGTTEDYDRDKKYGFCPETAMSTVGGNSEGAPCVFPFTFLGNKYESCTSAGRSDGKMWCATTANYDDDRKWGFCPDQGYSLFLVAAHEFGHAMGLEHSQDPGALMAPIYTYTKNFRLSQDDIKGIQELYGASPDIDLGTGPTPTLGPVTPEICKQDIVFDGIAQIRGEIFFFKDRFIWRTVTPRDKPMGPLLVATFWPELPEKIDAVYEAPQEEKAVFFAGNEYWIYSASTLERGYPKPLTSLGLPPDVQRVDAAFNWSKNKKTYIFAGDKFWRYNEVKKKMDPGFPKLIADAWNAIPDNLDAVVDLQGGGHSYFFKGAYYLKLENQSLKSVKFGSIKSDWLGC

[3] = tested on: cultured ocular epithelial cells; details: cultured ocular epithelial cells in vitro; cited from earlier work
[4] = Stability of ocular histatin formulation, determined by mass spectroscopy; assay type: physicochemical; details: 100 μg/mL in commercially-available gel tears lubricating eye drop with 0.25% PEG in aqueous buffered borate salt solution
Procedure: In some embodiments, the ocular histatin formulation is stable both at room temperature (25° C.) and at 45° C. for at least 90 days.

Chain of MMP-9 (P14780 94-707): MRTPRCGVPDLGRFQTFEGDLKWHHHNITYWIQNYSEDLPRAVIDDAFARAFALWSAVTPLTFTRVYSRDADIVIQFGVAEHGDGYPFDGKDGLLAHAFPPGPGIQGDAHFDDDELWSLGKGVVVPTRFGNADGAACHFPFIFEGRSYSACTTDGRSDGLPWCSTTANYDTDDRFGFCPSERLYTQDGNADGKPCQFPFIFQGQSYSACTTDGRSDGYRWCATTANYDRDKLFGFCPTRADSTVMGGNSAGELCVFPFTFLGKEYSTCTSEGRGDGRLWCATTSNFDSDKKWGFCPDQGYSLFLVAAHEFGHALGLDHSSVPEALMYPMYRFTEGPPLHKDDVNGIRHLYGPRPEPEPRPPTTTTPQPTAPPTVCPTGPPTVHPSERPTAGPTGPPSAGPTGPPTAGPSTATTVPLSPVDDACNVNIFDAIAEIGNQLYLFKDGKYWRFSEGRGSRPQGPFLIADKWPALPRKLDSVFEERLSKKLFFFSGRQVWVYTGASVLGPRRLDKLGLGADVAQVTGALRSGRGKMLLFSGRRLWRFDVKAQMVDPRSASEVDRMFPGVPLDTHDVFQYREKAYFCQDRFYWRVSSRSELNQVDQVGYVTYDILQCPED

For “histatin 5: naturally occurring oral salivary peptide; SEQ ID NO: 30 peptide”, the “inhibition of MMP-9 activity” value [1] is listed as “greatly inhibited” and the “inhibition of MMP-2 activity” value [2] is listed as “greatly inhibited”.
For Benzalkonium chloride, the cytotoxicity [3] is given as “significant cytotoxicity”.
For “cyclized histatin 1: sortase cyclized histatin (including all of Histatin 1) (GGDSHEKRHHGYRRKFHEKHHSHREFPFYGDYGSNYLYDNLPET; sortase cyclization)”, the “time found to be stable” value ([4]; 25° C.) was “at least 505 days” and the “time found to be stable” value ([4]; 45° C.) was “at least 90 days”.
